The source of these data is patent US20210253718A1, “FRIZZLED5 PROTEIN-BINDING AGENTS” (Modmab Therapeutics Corporation, priority 2016, published 2021).

The test system of test [1] is CHO cells not expressing Frizzled CRD. As to the kind of experiment: Flow cytometry of anti-FZD5 Fab binding to CHO cells not expressing Frizzled CRD (background). The source says:
The binding of anti-FZD5 Fabs to cell surface-expressed Frizzled protein was further determined for each member of the Frizzled family via flow cytometry and immunofluorescence analysis of a panel of 10 CHO cell lines, each ectopically over-expressing the extracellular cysteine-rich domain (CRD) of a different Frizzled protein family member.

Another test has as its target T1, FZD2 CRD (Homo sapiens, UniProt Q14332).
T1 construct: D35-P161; GPI anchor signal (C); expressed in transfected cells; host or cells: CHO cells, lentiviral pLenti-puro
Put plainly: Immunofluorescence of anti-FZD5 Fab binding to CHO cells overexpressing Frizzled CRD. More on the design: key: −: no binding; +: very weak binder; ++: weak binder; +++: good binder; ++++: very good binder. The procedure, abridged: (§1)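 Using immunofluorescence plus flow cytometry, we examine Fab binding to surface CRDs of individual Frizzled receptors, each expressed on CHO cells as a myc-GPI fusion from a lentiviral vector.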

The target in another test is T2, FZD8 CRD (Homo sapiens, UniProt Q9H461).
T2 construct: K31-D155; GPI anchor signal (C); expressed in transfected cells; host or cells: CHO cells, lentiviral pLenti-puro
T2 sequence (Q9H461 31-155): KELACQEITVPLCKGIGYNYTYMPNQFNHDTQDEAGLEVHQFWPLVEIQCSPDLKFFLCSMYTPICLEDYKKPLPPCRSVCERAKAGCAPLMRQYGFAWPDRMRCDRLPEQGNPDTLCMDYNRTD
The test is described as above. More on the design: key: −: no binding; +: very weak binder; ++: weak binder; +++: good binder; ++++: very good binder. The essentials:
as §1

The target in a further test is T3, FZD9 CRD (Homo sapiens, UniProt O00144).
T3 construct: G35-A161; GPI anchor signal (C); expressed in transfected cells; host or cells: CHO cells, lentiviral pLenti-puro
T3 sequence (O00144 35-161): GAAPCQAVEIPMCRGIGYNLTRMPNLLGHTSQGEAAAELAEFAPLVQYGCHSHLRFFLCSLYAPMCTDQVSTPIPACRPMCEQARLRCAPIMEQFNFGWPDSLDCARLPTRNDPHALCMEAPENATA
The test is described as above. More on the design: key: −: no binding; +: very weak binder; ++: weak binder; +++: good binder; ++++: very good binder. The procedure, abridged: as §1

For another test, the target named is T4, FZD4 CRD (Homo sapiens, UniProt Q9ULV1).
T4 construct: E42-V167; GPI anchor signal (C); expressed in transfected cells; host or cells: CHO cells, lentiviral pLenti-puro
T4 sequence (Q9ULV1 42-167): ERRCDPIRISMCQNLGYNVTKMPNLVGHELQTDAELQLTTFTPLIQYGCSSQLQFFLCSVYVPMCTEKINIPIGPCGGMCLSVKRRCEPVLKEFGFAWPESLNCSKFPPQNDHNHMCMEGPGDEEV
The description is as above. More on the design: key: −: no binding; +: very weak binder; ++: weak binder; +++: good binder; ++++: very good binder. The essentials: as §1

The next test addresses T5, FZD3 CRD (Homo sapiens, UniProt Q9NPG1).
T5 construct: CRD of FZD1, FZD2, FZD3, FZD4, FZD5, FZD6, FZD7, FZD8, FZD9 or FZD10; GPI anchor signal (C); expressed in transfected cells; host or cells: CHO cells, lentiviral pLenti-puro
T5 sequence (Q9NPG1 23-136 limits assumed): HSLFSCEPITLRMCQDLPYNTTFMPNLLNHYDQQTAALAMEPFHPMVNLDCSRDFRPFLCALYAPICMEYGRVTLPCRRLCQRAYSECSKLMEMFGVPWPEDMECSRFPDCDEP
The description is as above. More on the design: key: −: no binding; +: very weak binder; ++: weak binder; +++: good binder; ++++: very good binder. The procedure, abridged:
as §1

The target in a further test is T6, FZD1 CRD (Homo sapiens, UniProt Q9UP38).
T6 construct: D112-P238; GPI anchor signal (C); expressed in transfected cells; host or cells: CHO cells, lentiviral pLenti-puro
The test is described as above. More on the design: key: −: no binding; +: very weak binder; ++: weak binder; +++: good binder; ++++: very good binder. The essentials:
as §1

The next test has as its target T7, FZD5 CRD (Homo sapiens, UniProt Q13467).
T7 construct: K29-T156; GPI anchor signal (C); expressed in transfected cells; host or cells: CHO cells, lentiviral pLenti-puro
T7 sequence (Q13467 29-156): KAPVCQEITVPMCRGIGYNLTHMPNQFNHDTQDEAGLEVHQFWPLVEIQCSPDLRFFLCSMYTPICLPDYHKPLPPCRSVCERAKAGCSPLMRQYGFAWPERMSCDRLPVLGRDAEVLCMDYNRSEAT
The test is described as above. More on the design: key: −: no binding; +: very weak binder; ++: weak binder; +++: good binder; ++++: very good binder. The procedure, abridged:
as §1

B1: Fab-2919: anti-FZD5 Fab with antibody variable region Fv-2919; CDR SEQ ID NOs: 35, 36, 58, 97, 134, 155 (antibody, V domains shown)
VH: EVQLVESGGGLVQPGGSLRLSCAASGFNISYSYIHWVRQAPGKGLEWVASIYSSSGSTSYADSVKGRFTISADTSKNTAYLQMNSLRAEDTAVYYCARGAIDYWGQGTLVTVSS
VL: DIQMTQSPSSLSASVGDRVTITCRASQSVSSAVAWYQQKPGKAPKLLIYSASSLYSGVPSRFSGSRSGTDFTLTISSLQPEDFATYYCQQWYSSGHVLITFGQGTKVEIK
Turning to B1, the “Median fluorescence, Frizzled CRD overexpressed on CHO cells: None” value (“Median fluorescence” below) in test [1] stood at 3.08. Further, the “Immunofluorescence binding, Frizzled CRD overexpressed on CHO cells: FZD2” value (“Immunofluorescence binding … FZD2” for short) with FZD2 CRD is recorded as “−”. For the same molecule, the “Immunofluorescence binding, Frizzled CRD overexpressed on CHO cells: FZD8” value (shortened to “Immunofluorescence binding … FZD8”) in the test with FZD8 CRD is reported as “++”. Moreover, the “Immunofluorescence binding, Frizzled CRD overexpressed on CHO cells: FZD9” value (“Immunofluorescence binding … FZD9” below) with FZD9 CRD is listed as “−”. Besides, the “Immunofluorescence binding, Frizzled CRD overexpressed on CHO cells: FZD4” value (from here on “Immunofluorescence binding … FZD4”) in the test with FZD4 CRD is on record as “−”. In addition, in the test with FZD3 CRD, the “Immunofluorescence binding, Frizzled CRD overexpressed on CHO cells: FZD3” value (shortened to “Immunofluorescence binding … FZD3”) is given as “−”. Besides, the “Immunofluorescence binding, Frizzled CRD overexpressed on CHO cells: FZD1” value (“Immunofluorescence binding … FZD1” below) with FZD1 CRD is “−”. Besides, in the test with FZD5 CRD, the “Immunofluorescence binding, Frizzled CRD overexpressed on CHO cells: FZD5” value (from here on “Immunofluorescence binding … FZD5”) is “++++”.

B2: Fab-2916: anti-FZD5 Fab with antibody variable region Fv-2916; CDR SEQ ID NOs: 35, 36, 55, 94, 131, 167 (antibody, V domains shown)
VH: EVQLVESGGGLVQPGGSLRLSCAASGFNISYSSIHWVRQAPGKGLEWVASIYPSYSYTYYADSVKGRFTISADTSKNTAYLQMNSLRAEDTAVYYCARYGYYGMDYWGQGTLVTVSS
VL: DIQMTQSPSSLSASVGDRVTITCRASQSVSSAVAWYQQKPGKAPKLLIYSASSLYSGVPSRFSGSRSGTDFTLTISSLQPEDFATYYCQQWYHYPYLITFGQGTKVEIK
On to B2, for which the “Median fluorescence” value in test [1] was found to be 4.22. Besides, in the test with FZD2 CRD, the “Immunofluorescence binding … FZD2” value is on record as “++++”. For the same molecule, the “Immunofluorescence binding … FZD8” value with FZD8 CRD was “+”. Also, the “Immunofluorescence binding … FZD9” value in the test with FZD9 CRD is reported as “−”. In the test with FZD4 CRD, the “Immunofluorescence binding … FZD4” value was “−”. Besides, the “Immunofluorescence binding … FZD3” value in the test with FZD3 CRD is given as “−”. Further, the “Immunofluorescence binding … FZD1” value in the test with FZD1 CRD is “++++”. Besides, the “Immunofluorescence binding … FZD5” value with FZD5 CRD is on record as “++++”.

B3: Fab-2915: anti-FZD5 Fab with antibody variable region Fv-2915; CDR SEQ ID NOs: 35, 36, 54, 93, 130, 166 (antibody, V domains shown)
VH: EVQLVESGGGLVQPGGSLRLSCAASGFNIYYYSMHWVRQAPGKGLEWVASIYSSYGYTSYADSVKGRFTISADTSKNTAYLQMNSLRAEDTAVYYCARGYHYYPYYSGLDYWGQGTLVTVSS
VL: DIQMTQSPSSLSASVGDRVTITCRASQSVSSAVAWYQQKPGKAPKLLIYSASSLYSGVPSRFSGSRSGTDFTLTISSLQPEDFATYYCQQAYYHSLITFGQGTKVEIK
B3: in test [1], the “Median fluorescence” value was found to be 4.49. Besides, in the test with FZD2 CRD, the “Immunofluorescence binding … FZD2” value is “+++”. Further, the “Immunofluorescence binding … FZD8” value with FZD8 CRD is “+”. Besides, the “Immunofluorescence binding … FZD9” value with FZD9 CRD is recorded as “−”. Besides, in the test with FZD4 CRD, the “Immunofluorescence binding … FZD4” value is “−”. The “Immunofluorescence binding … FZD3” value in the test with FZD3 CRD is “−”. Moreover, the “Immunofluorescence binding … FZD1” value with FZD1 CRD is on record as “++”. Also, the “Immunofluorescence binding … FZD5” value with FZD5 CRD was “+++”.

B4: Fab-2918: anti-FZD5 Fab with antibody variable region Fv-2918; CDR SEQ ID NOs: 35, 36, 57, 96, 133, 169 (antibody, V domains shown)
VH: EVQLVESGGGLVQPGGSLRLSCAASGFNLSYSSIHWVRQAPGKGLEWVASIYSSYSSTSYADSVKGRFTISADTSKNTAYLQMNSLRAEDTAVYYCARFGYWAIDYWGQGTLVTVSS
VL: DIQMTQSPSSLSASVGDRVTITCRASQSVSSAVAWYQQKPGKAPKLLIYSASSLYSGVPSRFSGSRSGTDFTLTISSLQPEDFATYYCQQAFGASLFTFGQGTKVEIK
Consider B4, for which the “Median fluorescence” value in test [1] amounted to 3.13. In addition, in the test with FZD2 CRD, the “Immunofluorescence binding … FZD2” value is given as “−”. Further, in the test with FZD8 CRD, the “Immunofluorescence binding … FZD8” value is given as “+”. Also, the “Immunofluorescence binding … FZD9” value in the test with FZD9 CRD is reported as “−”. Besides, the “Immunofluorescence binding … FZD4” value with FZD4 CRD is reported as “−”. The “Immunofluorescence binding … FZD3” value with FZD3 CRD is reported as “−”. Moreover, the “Immunofluorescence binding … FZD1” value in the test with FZD1 CRD is “−”. Also, in the test with FZD5 CRD, the “Immunofluorescence binding … FZD5” value is “++++”.

B5: Fab-2920: anti-FZD5 Fab with antibody variable region Fv-2920; CDR SEQ ID NOs: 35, 36, 59, 98, 135, 170 (antibody, V domains shown)
VH: EVQLVESGGGLVQPGGSLRLSCAASGFNISYYYIHWVRQAPGKGLEWVASIYPSSGSTSYADSVKGRFTISADTSKNTAYLQMNSLRAEDTAVYYCARGGMDYWGQGTLVTVSS
VL: DIQMTQSPSSLSASVGDRVTITCRASQSVSSAVAWYQQKPGKAPKLLIYSASSLYSGVPSRFSGSRSGTDFTLTISSLQPEDFATYYCQQWFAGALITFGQGTKVEIK
B5: the “Median fluorescence” value in test [1] is listed as 3.37. Further, the “Immunofluorescence binding … FZD2” value with FZD2 CRD is given as “−”. Further, the “Immunofluorescence binding … FZD8” value with FZD8 CRD is given as “+”. The “Immunofluorescence binding … FZD9” value with FZD9 CRD is recorded as “−”. In addition, in the test with FZD4 CRD, the “Immunofluorescence binding … FZD4” value is “−”. The “Immunofluorescence binding … FZD3” value with FZD3 CRD is “−”. Moreover, the “Immunofluorescence binding … FZD1” value in the test with FZD1 CRD was “−”. In addition, in the test with FZD5 CRD, the “Immunofluorescence binding … FZD5” value is “++++”.

B6: Fab-2921: anti-FZD5 Fab with antibody variable region Fv-2921; CDR SEQ ID NOs: 35, 36, 60, 98, 136, 162 (antibody, V domains shown)
VH: EVQLVESGGGLVQPGGSLRLSCAASGFNISYYYIHWVRQAPGKGLEWVASIYPSSGSTSYADSVKGRFTISADTSKNTAYLQMNSLRAEDTAVYYCARGAMDYWGQGTLVTVSS
VL: DIQMTQSPSSLSASVGDRVTITCRASQSVSSAVAWYQQKPGKAPKLLIYSASSLYSGVPSRFSGSRSGTDFTLTISSLQPEDFATYYCQQWYAGSLITFGQGTKVEIK
B6: the “Median fluorescence” value in test [1] is 3.22. The “Immunofluorescence binding … FZD2” value in the test with FZD2 CRD is “−”. Further, the “Immunofluorescence binding … FZD8” value with FZD8 CRD is listed as “+”. For the same molecule, the “Immunofluorescence binding … FZD9” value with FZD9 CRD is reported as “−”. In the test with FZD4 CRD, the “Immunofluorescence binding … FZD4” value is “−”. For the same molecule, the “Immunofluorescence binding … FZD3” value with FZD3 CRD is “−”. The “Immunofluorescence binding … FZD1” value with FZD1 CRD is on record as “−”. In the test with FZD5 CRD, the “Immunofluorescence binding … FZD5” value is recorded as “++++”.
